As a reminder, the stoichiometry N is the number of molecules, sites or subunits per partner or assembly.

The data set concerns the molecule itself. Description: crystal structure.

B1: human CaMKIIα hub domain containing six mutations (6x Hub) (domain or fragment, UniProt Q9UQM7 345-475, looked up)
chain: VRKQEIIKVNQQLIEAISNGDFESYTKMCDPGMTAFEPEALGNLVEGLDFHRFYFENLWSRNSKPVHNTMLNPHIHLMGDESACIAYIRITQYLDAGGIPRTAQSEETRVWHRRDGKWQHVHMHRSGAPSV
For B1, the “stoichiometry N” value amounted to 14.

Values taken from paper doi:10.1101/2020.09.28.310474 (bioRxiv, 2020).
